# Data published in US20220177604A1.
# Target: recombinant Motavizumab human IgE (rMota-hIgE) (human) (UniProt P01854)
# Assay: hIgE binding ELISA
# Sequence of recombinant Motavizumab human IgE (rMota-hIgE) (human) (P01854 other isoform, or with tags, fused parts or gaps limits assumed, form in doubt): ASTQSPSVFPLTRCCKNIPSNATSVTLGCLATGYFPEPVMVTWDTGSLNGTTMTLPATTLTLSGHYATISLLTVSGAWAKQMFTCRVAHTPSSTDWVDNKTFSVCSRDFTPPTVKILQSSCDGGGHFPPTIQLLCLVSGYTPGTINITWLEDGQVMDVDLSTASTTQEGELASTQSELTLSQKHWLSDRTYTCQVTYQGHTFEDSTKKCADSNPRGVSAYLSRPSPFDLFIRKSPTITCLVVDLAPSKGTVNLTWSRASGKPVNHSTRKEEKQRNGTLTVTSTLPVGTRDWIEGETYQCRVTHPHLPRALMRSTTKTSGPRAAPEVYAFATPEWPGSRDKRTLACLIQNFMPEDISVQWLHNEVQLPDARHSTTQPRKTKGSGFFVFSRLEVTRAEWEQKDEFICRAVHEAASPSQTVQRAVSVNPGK
row,Binder,Ratio OD450 pH 7.4/pH 6
1,"CL-2C mAb 1 (antibody, V domains shown) VH: QVQLVQSGAEVMKPGSSVKVSCKASGYTFSWYWLEWVRQAPGHGLEWMGEIDPGTFTTHYNEKFKARVTFTADTSTSTAYMELSSLRSEDTAVYYCARFSHFSGSHYDYFDYWGQGTLVTVSS VL: EIVMTQSPATLSVSPGERATLSCRASQHIGTNIHWYQQKPGQAPRLLIYYASESISGIPARFSGSGSGTEFTLTISSLQSEDFAVYYCQQSWSHPTTFGGGTKVEIK",6.94
2,"CL-2C mAb 12 (antibody, V domains shown) VH: QVQLVQSGAEVMKPGSSVKVSCKASGYTFSWYHLEWVRQAPGHGLEWMGEIDPGTFTTNYNEKFKARVTFTADTSTSTAYMELSSLRSEDTAVYYCARFSHFSGSNHDYFDYWGQGTLVTVSS VL: EIVMTQSPATLSVSPGERATLSCRASQSIGTNIHWYQQKPGQAPRLLIYHASESISGIPARFSGSGSGTEFTLTISSLQSEDFAVYYCQQSWSHPTTFGGGTKVEIK",1.54
3,"CL-2C mAb 6 (antibody, V domains shown) VH: QVQLVQSGAEVMKPGSSVKVSCKASGYTFSWYWLEWVRQAPGHGLEWMGEIDPGTFTTHYNEKFKARVTFTADTSTSTAYMELSSLRSEDTAVYYCARFSHFSGSHYDYFDYWGQGTLVTVSS VL: EIVMTQSPATLSVSPGERATLSCRASQSIGTNIHWYQQKPGQAPRLLIYHASESISGIPARFSGSGSGTEFTLTISSLQSEDFAVYYCHQSDSWPTTFGGGTKVEIK",10.2
4,"CL-2C mAb 3 (antibody, V domains shown) VH: QVQLVQSGAEVMKPGSSVKVSCKASGYTFSWYHLEWVRQAPGHGLEWMGEIDPGTFTTNYNEKFKARVTFTADTSTSTAYMELSSLRSEDTAVYYCARFSHFSGSHYDYFDYWGQGTLVTVSS VL: EIVMTQSPATLSVSPGERATLSCRASQHIGTNIHWYQQKPGQAPRLLIYYASESISGIPARFSGSGSGTEFTLTISSLQSEDFAVYYCQQSWSHPTTFGGGTKVEIK",6.44
5,"CL-2C mAb 10 (antibody, V domains shown) VH: QVQLVQSGAEVMKPGSSVKVSCKASGYTFSWYWLEWVRQAPGHGLEWMGEIDPGTFTTNYNEKFKARVTFTADTSTSTAYMELSSLRSEDTAVYYCARFSHFSGSNYDYFDYWGQGTLVTVSS VL: EIVMTQSPATLSVSPGERATLSCRASQSIGTNIHWYQQKPGQAPRLLIYHASESISGIPARFSGSGSGTEFTLTISSLQSEDFAVYYCHQSDSWPTTFGGGTKVEIK",2.77
6,"CL-2C mAb 9 (antibody, V domains shown) VH: QVQLVQSGAEVMKPGSSVKVSCKASGYTFSWYHLEWVRQAPGHGLEWMGEIDPGTFTTNYNEKFKARVTFTADTSTSTAYMELSSLRSEDTAVYYCARFSHFSGHNYDYFDYWGQGTLVTVSS VL: EIVMTQSPATLSVSPGERATLSCRASQSIGTNIHWYQQKPGQAPRLLIYHASESISGIPARFSGSGSGTEFTLTISSLQSEDFAVYYCHQSDSWPTTFGGGTKVEIK",1.45
7,"CL-2C mAb 7 (antibody, V domains shown) VH: QVQLVQSGAEVMKPGSSVKVSCKASGYTFSWYHLEWVRQAPGHGLEWMGEIDPGTFTTNYNEKFKARVTFTADTSTSTAYMELSSLRSEDTAVYYCARFSHFSGSNHDYFDYWGQGTLVTVSS VL: EIVMTQSPATLSVSPGERATLSCRASQSIGTNIHWYQQKPGQAPRLLIYHASESISGIPARFSGSGSGTEFTLTISSLQSEDFAVYYCHQSDSWPTTFGGGTKVEIK",1.43
8,"CL-2C mAb 11 (antibody, V domains shown) VH: QVQLVQSGAEVMKPGSSVKVSCKASGYTFSWYWLEWVRQAPGHGLEWMGEIDPGTFTTHYNEKFKARVTFTADTSTSTAYMELSSLRSEDTAVYYCARFSHFSGSHYDYFDYWGQGTLVTVSS VL: EIVMTQSPATLSVSPGERATLSCRASQSIGTNIHWYQQKPGQAPRLLIYHASESISGIPARFSGSGSGTEFTLTISSLQSEDFAVYYCQQSWSHPTTFGGGTKVEIK",5.9
9,"CL-2C mAb 5 (antibody, V domains shown) VH: QVQLVQSGAEVMKPGSSVKVSCKASGYTFSWYWLEWVRQAPGHGLEWMGEIDPGTFTTNYNEKFKARVTFTADTSTSTAYMELSSLRSEDTAVYYCARFSHFSGSNYDYFDYWGQGTLVTVSS VL: EIVMTQSPATLSVSPGERATLSCRASQHIGTNIHWYQQKPGQAPRLLIYYASESISGIPARFSGSGSGTEFTLTISSLQSEDFAVYYCQQSWSHPTTFGGGTKVEIK",0.73
10,"CL-2C mAb 13 (antibody, V domains shown) VH: QVQLVQSGAEVMKPGSSVKVSCKASGYTFSWYHLEWVRQAPGHGLEWMGEIDPGTFTTNYNEKFKARVTFTADTSTSTAYMELSSLRSEDTAVYYCARFSHFSGSHYDYFDYWGQGTLVTVSS VL: EIVMTQSPATLSVSPGERATLSCRASQSIGTNIHWYQQKPGQAPRLLIYHASESISGIPARFSGSGSGTEFTLTISSLQSEDFAVYYCQQSWSHPTTFGGGTKVEIK",1.28
11,"CL-2C mAb 4 (antibody, V domains shown) VH: QVQLVQSGAEVMKPGSSVKVSCKASGYTFSWYHLEWVRQAPGHGLEWMGEIDPGTFTTNYNEKFKARVTFTADTSTSTAYMELSSLRSEDTAVYYCARFSHFSGHNYDYFDYWGQGTLVTVSS VL: EIVMTQSPATLSVSPGERATLSCRASQHIGTNIHWYQQKPGQAPRLLIYYASESISGIPARFSGSGSGTEFTLTISSLQSEDFAVYYCQQSWSHPTTFGGGTKVEIK",5.26
12,"CL-2C mAb 2 (antibody, V domains shown) VH: QVQLVQSGAEVMKPGSSVKVSCKASGYTFSWYHLEWVRQAPGHGLEWMGEIDPGTFTTNYNEKFKARVTFTADTSTSTAYMELSSLRSEDTAVYYCARFSHFSGSNHDYFDYWGQGTLVTVSS VL: EIVMTQSPATLSVSPGERATLSCRASQHIGTNIHWYQQKPGQAPRLLIYYASESISGIPARFSGSGSGTEFTLTISSLQSEDFAVYYCQQSWSHPTTFGGGTKVEIK",7.11
13,"CL-2C mAb 8 (antibody, V domains shown) VH: QVQLVQSGAEVMKPGSSVKVSCKASGYTFSWYHLEWVRQAPGHGLEWMGEIDPGTFTTNYNEKFKARVTFTADTSTSTAYMELSSLRSEDTAVYYCARFSHFSGSHYDYFDYWGQGTLVTVSS VL: EIVMTQSPATLSVSPGERATLSCRASQSIGTNIHWYQQKPGQAPRLLIYHASESISGIPARFSGSGSGTEFTLTISSLQSEDFAVYYCHQSDSWPTTFGGGTKVEIK",1.12

# Further lines, results first:
row,Ratio OD450 pH 7.4/pH 6,Binder
1,5.46,"CL-2C mAb 20 (antibody, V domains shown) VH: QVQLVQSGAEVMKPGSSVKVSCKASGYTFSWYWLEWVRQAPGHGLEWMGEIDPGTFTTNYNEKFKARVTFTADTSTSTAYMELSSLRSEDTAVYYCARFSHFSGSNYDYFDYWGQGTLVTVSS VL: EIVMTQSPATLSVSPGERATLSCRASQSIGTNIHWYQQKPGQAPRLLIYHASESISGIPARFSGSGSGTEFTLTISSLQSEDFAVYYCQQSDSHPTTFGGGTKVEIK"
2,0.97,"CL-2C mAb 18 (antibody, V domains shown) VH: QVQLVQSGAEVMKPGSSVKVSCKASGYTFSWYHLEWVRQAPGHGLEWMGEIDPGTFTTNYNEKFKARVTFTADTSTSTAYMELSSLRSEDTAVYYCARFSHFSGSHYDYFDYWGQGTLVTVSS VL: EIVMTQSPATLSVSPGERATLSCRASQSIGTNIHWYQQKPGQAPRLLIYHASESISGIPARFSGSGSGTEFTLTISSLQSEDFAVYYCQQSDSHPTTFGGGTKVEIK"
3,4.07,"CL-2C mAb 15 (antibody, V domains shown) VH: QVQLVQSGAEVMKPGSSVKVSCKASGYTFSWYWLEWVRQAPGHGLEWMGEIDPGTFTTNYNEKFKARVTFTADTSTSTAYMELSSLRSEDTAVYYCARFSHFSGSNYDYFDYWGQGTLVTVSS VL: EIVMTQSPATLSVSPGERATLSCRASQSIGTNIHWYQQKPGQAPRLLIYHASESISGIPARFSGSGSGTEFTLTISSLQSEDFAVYYCQQSWSHPTTFGGGTKVEIK"
4,1.03,"CL-2C mAb 17 (antibody, V domains shown) VH: QVQLVQSGAEVMKPGSSVKVSCKASGYTFSWYHLEWVRQAPGHGLEWMGEIDPGTFTTNYNEKFKARVTFTADTSTSTAYMELSSLRSEDTAVYYCARFSHFSGSNHDYFDYWGQGTLVTVSS VL: EIVMTQSPATLSVSPGERATLSCRASQSIGTNIHWYQQKPGQAPRLLIYHASESISGIPARFSGSGSGTEFTLTISSLQSEDFAVYYCQQSDSHPTTFGGGTKVEIK"
5,1.53,"CL-2C mAb 14 (antibody, V domains shown) VH: QVQLVQSGAEVMKPGSSVKVSCKASGYTFSWYHLEWVRQAPGHGLEWMGEIDPGTFTTNYNEKFKARVTFTADTSTSTAYMELSSLRSEDTAVYYCARFSHFSGHNYDYFDYWGQGTLVTVSS VL: EIVMTQSPATLSVSPGERATLSCRASQSIGTNIHWYQQKPGQAPRLLIYHASESISGIPARFSGSGSGTEFTLTISSLQSEDFAVYYCQQSWSHPTTFGGGTKVEIK"
6,19.4,"CL-2C mAb 27 (antibody, V domains shown) VH: QVQLVQSGAEVMKPGSSVKVSCKASGYTFSWYHLEWVRQAPGHGLEWMGEIDPGTFTTNYNEKFKARVTFTADTSTSTAYMELSSLRSEDTAVYYCARFSHFSGSNHDYFDYWGQGTLVTVSS VL: EIVMTQSPATLSVSPGERATLSCRASQSIGTNIHWYQQKPGQAPRLLIYHASESISGIPARFSGSGSGTEFTLTISSLQSEDFAVYYCQQSWSWPTTFGGGTKVEIK"
7,1.04,"CL-2C mAb 19 (antibody, V domains shown) VH: QVQLVQSGAEVMKPGSSVKVSCKASGYTFSWYHLEWVRQAPGHGLEWMGEIDPGTFTTNYNEKFKARVTFTADTSTSTAYMELSSLRSEDTAVYYCARFSHFSGHNYDYFDYWGQGTLVTVSS VL: EIVMTQSPATLSVSPGERATLSCRASQSIGTNIHWYQQKPGQAPRLLIYHASESISGIPARFSGSGSGTEFTLTISSLQSEDFAVYYCQQSDSHPTTFGGGTKVEIK"
8,44.6,"CL-2C mAb 26 (antibody, V domains shown) VH: QVQLVQSGAEVMKPGSSVKVSCKASGYTFSWYWLEWVRQAPGHGLEWMGEIDPGTFTTHYNEKFKARVTFTADTSTSTAYMELSSLRSEDTAVYYCARFSHFSGSHYDYFDYWGQGTLVTVSS VL: EIVMTQSPATLSVSPGERATLSCRASQSIGTNIHWYQQKPGQAPRLLIYHASESISGIPARFSGSGSGTEFTLTISSLQSEDFAVYYCQQSWSWPTTFGGGTKVEIK"
9,2.24,"CL-2C mAb 16 (antibody, V domains shown) VH: QVQLVQSGAEVMKPGSSVKVSCKASGYTFSWYWLEWVRQAPGHGLEWMGEIDPGTFTTHYNEKFKARVTFTADTSTSTAYMELSSLRSEDTAVYYCARFSHFSGSHYDYFDYWGQGTLVTVSS VL: EIVMTQSPATLSVSPGERATLSCRASQSIGTNIHWYQQKPGQAPRLLIYHASESISGIPARFSGSGSGTEFTLTISSLQSEDFAVYYCQQSDSHPTTFGGGTKVEIK"
